This note sets out measurements from US20240011005A1 (HUIDAGENE THERAPEUTICS, published 2024).

This series concerns the target T1, Un1Cas12f1_ge4.1 (Uncultured bacterium) (UniProt A0A482D308).
T1 sequence: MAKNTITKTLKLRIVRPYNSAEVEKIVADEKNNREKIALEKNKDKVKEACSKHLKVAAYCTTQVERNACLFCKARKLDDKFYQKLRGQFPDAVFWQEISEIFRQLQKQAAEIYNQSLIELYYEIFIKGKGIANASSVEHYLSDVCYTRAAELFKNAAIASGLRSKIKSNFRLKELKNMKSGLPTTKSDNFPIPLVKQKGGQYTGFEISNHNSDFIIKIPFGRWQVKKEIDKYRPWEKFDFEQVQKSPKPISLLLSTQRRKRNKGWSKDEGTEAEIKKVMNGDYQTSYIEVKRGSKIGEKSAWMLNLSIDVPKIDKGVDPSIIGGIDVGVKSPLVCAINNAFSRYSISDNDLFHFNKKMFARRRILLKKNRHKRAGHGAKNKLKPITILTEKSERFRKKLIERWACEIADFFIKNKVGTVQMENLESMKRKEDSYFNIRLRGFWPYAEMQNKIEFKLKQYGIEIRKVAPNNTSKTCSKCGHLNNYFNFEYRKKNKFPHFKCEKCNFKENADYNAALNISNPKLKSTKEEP
Nature of the series: cell_activity. The settings on record: PAM TTTG per Table 1; 36.1 in Rh screen.

“ACCGCUUCACUUAGAGUGAAGGUGGGCUGCUUGCAUCAGCCUAAUGUCGAGAAGUGCUUUCUUCGGAAAGUAACCCUCGAAACAAAGAAAGGAAUGCAACCCAUUACAGUAGGAGCAUACUUUUAUUUUUUU / TTTGCCATTACAGTAGGAGCATAC / GTATGCTCCTACTGTAATGGCAAA [Un1Cas12f1_ge4.1 sgRNA ; reporter insertion, TTTG PAM]” came in with an activity of 36.5 % GFP+.
